Experimental data from article PMC9970974 (2023).

Key:
[1] = molecular target: short version of the toxin domain (Ile323-the C-terminus) of MafB2_(MGI-2B16B6), no tag (N. meningitidis B16B6) (UniProt Q9JXD2); experiment: ITC; Nano ITC, 20 °C, 10 mM Tris-HCl pH 8.0, 100 mM NaCl, 2 mM β-ME; 50 injections of 1 μl NmMafI2 (~1.3 mM) into NmMafB2-CT2 (~0.2 mM); independent binding sites model
[2] = molecular target: T1, short version of the toxin domain (Ile323-the C-terminus) of MafB2_(MGI-2B16B6), no tag (N. meningitidis B16B6, UniProt Q9JXD2 323-483); experiment: ITC
T1 chain: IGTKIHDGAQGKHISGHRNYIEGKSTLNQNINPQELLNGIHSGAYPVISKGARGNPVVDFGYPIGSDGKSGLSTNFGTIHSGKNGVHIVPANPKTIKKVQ

## MafI2_(MGI-2B16B6) with a C-terminal 6xHis-tag (from UniProt A0A0G4BSP3 1-139) (natural protein)
[1]
  Kd: 40 nM
  stoichiometry N: 1

B1: MafI2_(MGI-2B16B6) with a C-terminal 6xHis-tag (natural protein)
chain: MYKIKCFYDQFSSGELFNYCQFLDNSSNQKINTRGTVYQYIIYVLTGDLYLQKDIDENLEFIHQAENNPNEVYSGGGQGFCWDISAEKVVFYHNEFDEEDGWPDLSCSLHTFKTALIAWNAFLQLPKSIHSVVETVIEE
[2]
  Kd: 35.1 nM
